This data set in a line: protein stability index of a GFP-peptide fusion (GPS, HEK-293T) (PSI 1-6); higher = more stable.
[1] abbreviates: treatment: DMSO, c terminus: a fixed tail appended.
Setting [2] is: treatment: MLN4924 1 uM, 8 h, c terminus: a fixed tail appended.

± gives the standard deviation.
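Also: 24-mer peptide tiles fused after GFP, lentivirally expressed, FACS-sorted into six equal bins by GFP/DsRed ratio, decoded by Illumina sequencing, PSI is the read-weighted mean bin number.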

Consider TQTTNDGVCQSMCHDKYTKIFNDF [ZMYND11], for which the protein stability index is, setting by setting: under setting [1], 3.05 ± 0.2; under setting [2], 3.27 ± 0.12.
The matching figures for KATMQNLNDRLASYLDKVRALEEA [KRT17]: 3.14 ± 0.19 and 3.43 ± 0.3.
In the case of RLIRKMFSFKVSRWMGLACFRSLA [CCDC70], the protein stability index under setting [1] was 2.35 ± 0.46 and the protein stability index under setting [2] was 2.29 ± 0.45.
Taken in the same sequence, the figures for AELVLLTLGQAWQGYVSDIRRFLS [DFFB] were 2.12 ± 0.17 and 2.06 ± 0.21.
The matching figures for KPKMNYEKLSRGLRYYYDKNIIHK [ETS2]: 2.48 ± 0.19 and 2.52 ± 0.38.
The matching figures for GYDHLWDETLSSSHQKCPQLGGPE [PLEKHN1]: 4.19 ± 0.3 and 4.31 ± 0.32.
As to VHSDLSSIVILDNSPGAYRSHPDN [CTDNEP1], the protein stability index came to 3.6 ± 0.15 under setting [1] and 3.72 ± 0.27 under setting [2].
Taken in the same sequence, the figures for SQGQWGRAWEVDWFSLASVIFLLL [DHCR7] were 2.68 ± 0.033 and 2.39 ± 0.48.
Taken in the same sequence, the figures for KDVAIDMMDSRTSQQLQLIDEQDS [STX5] were 5.4 ± 0.21 and 5.33 ± 0.4.
The matching figures for LYGTKGNYTSRVWEYSSSIQNSDN [TRIM29]: 3.04 ± 0.2 and 2.83 ± 0.26.
For NMEELTEVITAAEFHPHHCNTFVY [PPP2R2B], the protein stability index by setting is: under setting [1], 2.38 ± 0.25; under setting [2], 2.59 ± 0.33.
As for LQLGDGGGCTVGVAGEGVRRKGEM [TRIM15], the protein stability index is, setting by setting: under setting [1], 4.71 ± 0.17; under setting [2], 3.84 ± 0.45.
The matching figures for TSFNHMDSDKLSGLWSRISHLVLP [TOR1AIP2]: 2.28 ± 0.2 and 2.33 ± 0.2.
Taken in the same sequence, the figures for GKYDSGIPPYSRASLKGYQWLKDK [KCNAB2] were 3.26 ± 0.073 and 3.23 ± 0.24.
For the sequence QQQVKTNGAGVTVLRREISELRTK [FBXO28], the protein stability index is 4.32 ± 0.19 under setting [1] and 4.44 ± 0.32 under setting [2].
For the sequence LISGVTLDNCVEVGRIANTYNLTE [KLHL13], the protein stability index came to 2.89 ± 0.18 under setting [1] and 2.77 ± 0.15 under setting [2].
Taken in the same sequence, the figures for CEVIFCVFIFYYVVEEILELHIHR [PKD2L1] were 3 ± 0.52 and 3.07 ± 0.11.
Taken in the same sequence, the figures for FCLQKLISLHPFNPWNWGKLAEAY [C8orf76] were 2.85 ± 0.49 and 2.82 ± 1.3.
The matching figures for LYFHHYFPAMLFSSMLTGILWDTL [POMT2]: 2.84 ± 0.34 and 3.21 ± 0.23.
On to FRVGKKIGCGNFGELRLGKNLYTN [CSNK1G3], for which the protein stability index reads like this: under setting [1], 2.06 ± 0.19; under setting [2], 2.28 ± 0.087.
Taken in the same sequence, the figures for LAGMANHGSPQLGEGMFQHQTSVA [TBX5] were 3.83 ± 0.2 and 3.83 ± 0.13.
For the sequence SVICRSLPEGMGPGESGQPPPAC [ALKBH7], the protein stability index (treatment: DMSO, c terminus: native) is 2.87 ± 0.71 and the protein stability index (treatment: MLN4924 1 uM, 8 h, c terminus: native) is 3.5 ± 0.69.
The sequence EARFIRRSCTPNAEVRHEIQDGTI [KMT2E] returned a protein stability index under setting [1] of 4.34 ± 0.67 and a protein stability index under setting [2] of 4.27 ± 0.11.
Taken in the same sequence, the figures for KDHECSECGKTFIYNSHLVVHQRV [ZNF232] were 2.56 ± 0.32 and 2.88 ± 0.41.
Taken in the same sequence, the figures for FKISGMNGIHVCMVFEVLGHHLLK [SRPK2] were 3.01 ± 0.34 and 2.92 ± 0.31.
Taken in the same sequence, the figures for EECIPEHMVRESKIMEAESQKATR [FAN1] were 5.12 ± 0.77 and 4.72 ± 1.2.
In the case of CSSSTRSVLKRPERSQEESPPGST [CDC25A], the protein stability index is, setting by setting: under setting [1], 5.17 ± 0.21; under setting [2], 4.95 ± 0.34.
The matching figures for TIEDEDVKARKQEIIKVTEQLIEA [CAMK2D]: 5.25 ± 0.075 and 5.26 ± 0.11.
For IENIQRVAAGVLCELAQDKEAAEA [CTNNB1], the protein stability index is, setting by setting: under setting [1], 5.08 ± 0.11; under setting [2], 5.1 ± 0.48.
The matching figures for KLKNDTENHQPVSLSDLEIQASAG [ZNF75A]: 5.21 ± 0.32 and 5.15 ± 0.14.
The matching figures for APQGGMAALNMSLGMVTPVNDLRG [ADD1]: 3.83 ± 0.23 and 3.77 ± 0.097.
The matching figures for SEFLKRFVEATRKWKVGIPSDPLV [ALDH8A1]: 2.53 ± 0.85 and 2.05 ± 0.2.
Take GLSSVSPSHLLLPPDTVSRTGLEK [SPDEF]: the protein stability index was found to be 4.52 ± 0.23 under setting [1] and 4.33 ± 0.2 under setting [2].
With RKRMKMDKTCSKTKNKSKHALRKK [FAM9B], the protein stability index under setting [1] is 4.23 ± 0.45 and the protein stability index under setting [2] is 4.66 ± 0.3.
Taken in the same sequence, the figures for TAEPFPRLHNLYSTPRCAQQAALP [CBY2] were 2.67 ± 0.2 and 2.66 ± 0.24.
The matching figures for GQTSGAREPPQAVSIKEAAGSSNL [VENTX]: 5.26 ± 0.26 and 5.15 ± 0.25.
The matching figures for VPNAKKLRRKEQLWEKLAKQGELP [NOP53]: 3.35 ± 0.33 and 3.51 ± 0.39.
Regarding PSVYHAMPSPCSCMSFNPETRRLS [WDFY2], the protein stability index by setting is: under setting [1], 2.57 ± 0.36; under setting [2], 2.88 ± 0.41.
Taken in the same sequence, the figures for NWATTPSSQKKDTSSSTVVSTQRS [TIA1] were 4.83 ± 0.19 and 4.92 ± 0.18.
Taken in the same sequence, the figures for LKTADWRVFLFQAPSKEEMLSWIL [PSD2] were 2.16 ± 0.57 and 2.04 ± 0.38.
Taken in the same sequence, the figures for MTAPAGPRGSETERLLTPNPGYGT [MCOLN1] were 4.23 ± 0.22 and 4.2 ± 0.42.
For QVEIFSTNPDLYPVRRIDGLTDVS [IQUB], the protein stability index runs as follows: under setting [1], 3.71 ± 0.29; under setting [2], 3.68 ± 0.27.
In the case of QLEVTCTPYLKETLNSIWNVEDHI [POMT2], the protein stability index under setting [1] is 2.51 ± 0.32 and the protein stability index under setting [2] stood at 2.44 ± 0.34.
The matching figures for DYLTVKVWDLNMEARPIETYQVHD [PPP2R2C]: 2.69 ± 0.34 and 2.86 ± 0.16.
The matching figures for LQAQKEELQSLMHQPKGLEEENAQ [PBXIP1]: 5.64 ± 0.29 and 5.45 ± 0.27.
In turn, EWNEKVTQSDLYKKTQETLSQAGQ [TPD52L2] showed a protein stability index under setting [1] of 4.39 ± 0.35 and a protein stability index under setting [2] of 4.4 ± 0.17.
In turn, KAEPRLPDRVYIHPDSPATGAHWM [TBX6] gave a protein stability index under setting [1] of 3.09 ± 0.12 and a protein stability index under setting [2] of 3.23 ± 0.35.
The matching figures for GLSESSGPHTISNQNNYRLLSCGK [ACSBG2]: 4.55 ± 0.41 and 4 ± 0.28.
Taken in the same sequence, the figures for SDSPDAADSTSFDVQLGDIILTAT [PPTC7] were 3.98 ± 0.27 and 4.01 ± 0.18.
The sequence RNPVSLVVTRLVILGSGEEGPQVG [ADAMTS4] returned a protein stability index under setting [1] of 2.83 ± 0.2.
Regarding MSAPGSPDQAYDFLLKFLLVGDRD [RAB40A], the protein stability index under setting [1] turned out to be 2.27 ± 0.23 and the protein stability index under setting [2] worked out at 2.42 ± 0.38.
The matching figures for LWQFLLELLTDKSCQSFISWTGDG [ETS1]: 2.96 ± 0.47 and 3.13 ± 0.46.
Taken in the same sequence, the figures for ADTTTGSAAGPPLSEDDKLQGAAS [EHMT1] were 5.46 ± 0.23 and 5.51 ± 0.18.

(Values after the supplement of paper PMC10567573.)
